Experimental data as given in US6958236B2, “Control of gene expression in plants” (priority 2000, dated 2005).

Tested on: pCGS154 reporter
Experiment: Transient transfection of S2 Drosophila cells with luciferase reporter and EcR receptor plasmids
Assay type: cell-based
Details: for Fold Activation With Chemistry: Example 6, third column (LLV, LMV), 0.2 μM tebufenozide; for Assay # 1 Fold Activation With Chemistry / Assay # 2 Fold Activation With Chemistry: Example 6, 0.2 μM tebufenozide vs without chemistry, normalized to pCGS154 reporter without receptor; for Fold Activation With Chemistry Assay #1 / Fold Activation With Chemistry Assay #2: Example 7, 0.2 μM tebufenozide; for No Chemistry (luciferase activity as ratio to pCGS154 reporter without chemistry): reporter CGS154, no chemical ligand
Protocol: An in vivo cell based assay is designed to measure transcriptional activation by the receptors of a reporter plasmid. S2 Drosophila cells (ATCC CRL-1963) are transiently transfected with luciferase reporter and receptor expression plasmids using the calcium phosphate precipitation procedure (Di Nocera and David (1983) PNAS 80, 7095-7098). S2 cells are plated in 96 well format at a density of 2×10^5 in 166.6 μl of Schneider's Drosophila media supplemented with antibiotics and 10% heat inactivated fetal bovine serum (GIBO-BRL). The following day, 33.4 μl of a calcium phosphate precipitate containing 3-6 ng of pCGS154 reporter plasmid, 3-6 ng of EcR receptor plasmid along with salmon sperm DNA to a total of 400 ng DNA per well is added. Chemical ligands are added 16-24 hours after DNA addition to the cells. Cells are then harvested and extracted 24 hours after chemistry addition following the procedures for the luciferase assay by centrifuging and resuspending the cell pellets in 100 μl of cell culture lysis reagent (Promega). Luciferase activity is quantitated using chemiluminescence (Promega) using an analytical luminescence model 2001 luminometer.
S2 cells contain Drosophila EcR and USP. The endogenous USP can be used as the heterodimerization partner for EcR or exogenous USP expression plasmid can be added to the assay.
To compare the activities of Manduca and Drosophila EcR, S2 cells are transiently transfected using the above procedure with the reporter plasmid pCGS 154 and either full-length Drosophila EcR, DDV, full-length Manduca EcR, or MMV. Tebufenozide at 0.2 µM and 2 μM is used as the chemical ligand. Luciferase assays are performed as described above. All of the results are normalized as a ratio of activity to the light unit value for the pCGS154 reporter without chemistry.
The activities of the EcR-VP16 chimeras are compared by transiently transfecting S2 cells as described in Example 3. Tebufenozide is added to the cells at 0.2 μM concentration. Results are expressed as fold activation, a ratio of the activity of the constructs with chemistry added as compared to activity of the constructs without chemistry. All results are normalized to the luciferase activity of the pCGS154 reporter without receptor addition.
(§1) The activities of the EcR-VP16 chimeras are compared by transiently transfecting S2 cells as in Example 3. Tebufenozide is added to the cells at 0.2 μM concentration. Results are expressed as fold activation of constructs with chemistry as compared to without chemistry. All results are normalized to the luciferase activity of the pCGS154 reporter without receptor.
as §1, with “chemistry addition.” for “chemistry.”

B1: LMV: EcR chimera: Locusta migratoria C+D domains, Manduca sexta E domain, VP16; SEQ ID NO:83-84 (protein)
chain: MGREDLSPLSSLNGYSADSCDAKKKKGAAPRQQEELCLVCGDRASGYHYNALTCEGCKGFFRRSITKNAVYQCKYGNNCEIDMYMRRKCQECRLKKCLTVGMRPECVVPEYQCAVKRKEKKAQKDKDKPNSTTNGSPEVMMLKDIDAKVEPERPLSNGIKPVSPEQEELIHRLVWYQEGYEQPSEEDLKRVTQTWQLEEEEEEETDMPFRQITEMTILTVQLIVEFAKGLPGFSKISQSDQITLLKASSSEVMMLRVARRYDAATDSVLFANNQAYTRDNYRKAGMSYVIEDLLHFCRCMYSMSMDNVHYALLTAIVIFSDRPGLEQPLLVEEIQRYYLKTLRVYILNQHSASPRCAVLFGKILGVLTELRTLGTQNSNMCISLKLKNRKLPPFLEEIWDVAEVSTTKLAPPTDVSLGDELHLDGEDVAMAHADALDDFDLDMLGDGDSPGPGFTPHDSAPYGALDMADFEFEQMFTDALGIDEYGG
Fold Activation With Chemistry: 48.8 fold

B2: MDV: EcR chimera: Manduca sexta C+D domains, Drosophila melanogaster E domain, VP16 activation domain; SEQ ID NO:63-64 (protein)
chain: MGREELSPASSINGCSTDGEPRRQKKGPAPRQQEELCLVCGDRASGYHYNALTCEGCKGFFRRSVTKNAVYICKFGHACEMDMYMRRKCQECRLKKCLAVGMRPECVVPESTCKNKRREKEAQREKDKLPVSTTTVDDHMPAIMQCDPPPPEAARIHEVVPRFLTEKLMEQNRLKNVTPLSANQKSLIARLVWYQDGYEQPSEEDLRRIMSQPDENESQTDVSFRHITEITILTVQLIVEFAKGLPAFTKIPQEDQITLLKACSSEVMMLRMARRYDHSSDSIFFANNRSYTRDSYKMAGMADNIEDLLHFCRQMFSMKVDNVEYALLTAIVIFSDRPGLEKAQLVEAIQSYYIDTLRIYILNRHCGDSMSLVFYAKLLSILTELRTLGNQNAEMCFSLKLKNRKLPKFLEEIWDVHAIPPKLAPPTDVSLGDELHLDGEDVAMAHADALDDFDLDMLGDGDSPGPGFTPHDSAPYGALDMADFEFEQMFTDALGIDEYGG
Assay # 1 Fold Activation With Chemistry: 1.20 fold
Assay # 2 Fold Activation With Chemistry: 1.18 fold
Fold Activation With Chemistry Assay #1: 1.1 fold
Fold Activation With Chemistry Assay #2: 1.1 fold

B3: LLV: EcR chimera: Locusta migratoria C+D and E domains, VP16; SEQ ID NO:81-82 (protein)
chain: MGREDLSPLSSLNGYSADSCDAKKKKGAAPRQQEELCLVCGDRASGYHYNALTCEGCKGFFRRSITKNAVYQCKYGNNCEIDMYMRRKCQECRLKKCLTVGMRPECVVPEYQCAVKRKEKKAQKDKDKPNSTTNGSPEVMMLKDIDAKVEPERPLSNGIKPVSPEQEELIHRLVYFQNEYESPSEEDLRRVTSQPTEGEDQSDVRFRHITEITILTVQLIVEFAKRLPGFDKLLREDQIALLKACSSEVMMFRMARRYDVNSDSILFANNQPYTKDSYNLAGMGETIEDMLRFCRQMYAMKVDNAEYALLTAIVIFSERPSLVEGWKVEKIQEIYLEALKAYVDNRRRPKSGTIFAKLLSVLTELRTLGNQNSEMCFSLKLKNKKLPPFLAEIWDVIPKLAPPTDVSLGDELHLDGEDVAMAHADALDDFDLDMLGDGDSPGPGFTPHDSAPYGALDMADFEFEQMFTDALGIDEYGG
Fold Activation With Chemistry: 0.47 fold

B4: MaFL: full-length Manduca EcR expression cassette in pPacU (protein, UniProt P49883 1-556, looked up)
chain: MRRRWSNNGCFPLRMFEESSSEVTSSSAFGMPAAMVMSPESLASPEYGGLELWSYDETMTNYPAQSLLGACNAPQQQQQQQQQQPSAQPLPSMPLPMPPTTPKSENESMSSGREELSPASSINGCSTDGEPRRQKKGPAPRQQEELCLVCGDRASGYHYNALTCEGCKGFFRRSVTKNAVYICKFGHACEMDMYMRRKCQECRLKKCLAVGMRPECVVPESTCKNKRREKEAQREKDKLPVSTTTVDDHMPAIMQCDPPPPEAARIHEVVPRFLTEKLMEQNRLKNVTPLSANQKSLIARLVWYQEGYEQPSEEDLKRVTQTWQLEEEEEEETDMPFRQITEMTILTVQLIVEFAKGLPGFSKISQSDQITLLKASSSEVMMLRVARRYDAATDSVLFANNQAYTRDNYRKAGMSYVIEDLLHFCRCMYSMSMDNVHYALLTAIVIFSDRPGLEQPLLVEEIQRYYLKTLRVYILNQHSASPRCAVLFGKILGVLTELRTLGTQNSNMCISLKLKNRKLPPFLEEIWDVAEVSTTQPTPGVAAQVTPIVVDNPAAL
modifications: full-length
notes: full-length Manduca EcR expression cassette in pPacU
No Chemistry (luciferase activity as ratio to pCGS154 reporter without chemistry): 1

B5: MMV: EcR chimera: Manduca sexta C+D and E domains, VP16; SEQ ID NO:93-94 (protein)
chain: MGREELSPASSINGCSTDGEPRRQKKGPAPRQQEELCLVCGDRASGYHYNALTCEGCKGFFRRSVTKNAVYICKFGHACEMDMYMRRKCQECRLKKCLAVGMRPECVVPESTCKNKRREKEAQREKDKLPVSTTTVDDHMPAIMQCDPPPPEAARIHEVVPRFLTEKLMEQNRLKNVTPLSANQKSLIARLVWYQEGYEQPSEEDLKRVTQTWQLEEEEEEETDMPFRQITEMTILTVQLIVEFAKGLPGFSKISQSDQITLLKASSSEVMMLRVARRYDAATDSVLFANNQAYTRDNYRKAGMSYVIEDLLHFCRCMYSMSMDNVHYALLTAIVIFSDRPGLEQPLLVEEIQRYYLKTLRVYILNQHSASPRCAVLFGKILGVLTELRTLGTQNSNMCISLKLKNRKLPPFLEEIWDVAEVSTTKLAPPTDVSLGDELHLDGEDVAMAHADALDDFDLDMLGDGDSPGPGFTPHDSAPYGALDMADFEFEQMFTDALGIDEYGG
Assay # 1 Fold Activation With Chemistry: 87.65 fold
Assay # 2 Fold Activation With Chemistry: 151.06 fold
Fold Activation With Chemistry Assay #1: 719.2 fold
Fold Activation With Chemistry Assay #2: 595.1 fold
No Chemistry (luciferase activity as ratio to pCGS154 reporter without chemistry): 1

B6: MLV: EcR chimera: Manduca sexta C+D domains, Locusta migratoria E domain, VP16; SEQ ID NO:85-86 (protein)
chain: MGREELSPASSINGCSTDGEPRRQKKGPAPRQQEELCLVCGDRASGYHYNALTCEGCKGFFRRSVTKNAVYICKFGHACEMDMYMRRKCQECRLKKCLAVGMRPECVVPESTCKNKRREKEAQREKDKLPVSTTTVDDHMPAIMQCDPPPPEAARIHEVVPRFLTEKLMEQNRLKNVTPLSANQKSLIARLVWYQNEYESPSEEDLRRVTSQPTEGEDQSDVRFRHITEITILTVQLIVEFAKRLPGFDKLLREDQIALLKACSSEVMMFRMARRYDVNSDSILFANNQPYTKDSYNLAGMGETIEDMLRFCRQMYAMKVDNAEYALLTAIVIFSERPSLVEGWKVEKIQEIYLEALKAYVDNRRRPKSGTIFAKLLSVLTELRTLGNQNSEMCFSLKLKNKKLPPFLAEIWDVIPKLAPPTDVSLGDELHLDGEDVAMAHADALDDFDLDMLGDGDSPGPGFTPHDSAPYGALDMADFEFEQMFTDALGIDEYGG
Fold Activation With Chemistry Assay #1: 1.7 fold
Fold Activation With Chemistry Assay #2: 1.0 fold

B7: DMV: EcR chimera: Drosophila melanogaster C+D domains, Manduca sexta E domain, VP16; SEQ ID NO:71-72 (protein)
chain: MGRDDLSPSSSLNGYSANESCDAKKSKKGPAPRVQEELCLVCGDRASGYHYNALTCEGCKGFFRRSVTKSAVYCCKFGRACEMDMYMRRKCQECRLKKCLAVGMRPECVVPENQCAMKRREKKAQKEKDKMTTSPSSQHGGNGSLASGGGQDFVKKEILDLMTCEPPQHATIPLLPDEILAKCQARNIPSLTYNQLAVIYKLIWYQEGYEQPSEEDLKRVTQTWQLEEEEEEETDMPFRQITEMTILTVQLIVEFAKGLPGFSKISQSDQITLLKASSSEVMMLRVARRYDAATDSVLFANNQAYTRDNYRKAGMSYVIEDLLHFCRCMYSMSMDNVHYALLTAIVIFSDRPGLEQPLLVEEIQRYYLKTLRVYILNQHSASPRCAVLFGKILGVLTELRTLGTQNSNMCISLKLKNRKLPPFLEEIWDVAEVSTTKLAPPTDVSLGDELHLDGEDVAMAHADALDDFDLDMLGDGDSPGPGFTPHDSAPYGALDMADFEFEQMFTDALGIDEYGG
Assay # 1 Fold Activation With Chemistry: 8.67 fold
Assay # 2 Fold Activation With Chemistry: 3.72 fold
